We go through four molecules from patent US7432365B1, “DNA molecules encoding beta clamp proteins of gram positive bacteria” (priority 1998, dated 2008).

One experiment deals with Pol I (Bacillus subtilis, UniProt O34996). The note with it: 0.15 M KCl; cited from earlier work.
The next experiment has as its system Pol II. The note with it: 0.15 M KCl; cited from earlier work.
Another experiment concerns the target Pol III-L (Bacillus subtilis, UniProt P13267). The note with it: Pol III-L, 0.15 M KCl; cited from earlier work.
Experiment [1] concerns the target Escherichia coli DNA polymerase III core (Escherichia coli) (UniProt P10443). As to the kind of experiment: cell-based or functional assay.
Experiment [2] has as its system singly primed M13mp18 ssDNA. As to the kind of experiment: Time course of primer extension on singly primed M13mp18 ssDNA, DnaE polymerase. The format is biochemical. The note with it: saturating concentration of DnaE. On the procedure:
The S. pyogenes DnaE (α-small) polymerase is more homologous to E. coli a than S. pyogenes PolC. Thus, it seems reasonable to expect that the DnaE polymerase may also function with the β clamp (FIGS. 21A-B). To test DnaE for function with τδδ′ and β, replication reactions contained 70 ng (25 fmol) of 30-mer singly primed M13 mp18 ssDNA, 0.82 μg of S. pyogenes SSB, and 3.3 ng-300 ng of DnaE (25 fmol −2.3 pmol) in 23.5 μl of 20 mM Tris-HCl (pH 7.5), 4% glycerol, 0.1 mM EDTA, 5 mM dithiothreitol (DTT), 40 μg/ml BSA, 2 mM ATP, 8 mM MgCl2, and 60 μM each of dGTP and dCTP. When present, reactions included 43.3 ng of β and 10 ng of τδδ′. Reactions were preincubated for 3 min at 37° C., and then NaCl was added to 40 mM followed by another 2 min at 37° C. DNA synthesis was initiated upon addition of 1.5 μl of 1.5 mM dATP, 0.5 mM [α^32P]-dTTP (specific activity 2,000-4,000 cpm/pmol). Aliquots of 25 μl were removed at the indicated times and quenched with an equal volume (25 μl) of 1% SDS, 40 mM EDTA. One-half of the quenched reaction was analyzed for total deoxynucleotide incorporation using DE81 filter paper and the other half was analyzed on a 0.8% neutral agarose gel. The effect of TMAU was also examined, in which 100 μM TMAU in DMSO (2% DMSO final concentration) was present. In this case, replication was allowed to proceed for 1 min before being quenched with […] of 1% SDS, 40 mM EDTA. […]

Experiment [3] deals with Staphylococcus aureus Pol III-L (α-large, polC gene product) (Staphylococcus aureus) (UniProt P0C1P9). As to the kind of experiment: cell-based or functional assay.
Sequence of Staphylococcus aureus Pol III-L (α-large, polC gene product) (Staphylococcus aureus) (P0C1P9 whole entry): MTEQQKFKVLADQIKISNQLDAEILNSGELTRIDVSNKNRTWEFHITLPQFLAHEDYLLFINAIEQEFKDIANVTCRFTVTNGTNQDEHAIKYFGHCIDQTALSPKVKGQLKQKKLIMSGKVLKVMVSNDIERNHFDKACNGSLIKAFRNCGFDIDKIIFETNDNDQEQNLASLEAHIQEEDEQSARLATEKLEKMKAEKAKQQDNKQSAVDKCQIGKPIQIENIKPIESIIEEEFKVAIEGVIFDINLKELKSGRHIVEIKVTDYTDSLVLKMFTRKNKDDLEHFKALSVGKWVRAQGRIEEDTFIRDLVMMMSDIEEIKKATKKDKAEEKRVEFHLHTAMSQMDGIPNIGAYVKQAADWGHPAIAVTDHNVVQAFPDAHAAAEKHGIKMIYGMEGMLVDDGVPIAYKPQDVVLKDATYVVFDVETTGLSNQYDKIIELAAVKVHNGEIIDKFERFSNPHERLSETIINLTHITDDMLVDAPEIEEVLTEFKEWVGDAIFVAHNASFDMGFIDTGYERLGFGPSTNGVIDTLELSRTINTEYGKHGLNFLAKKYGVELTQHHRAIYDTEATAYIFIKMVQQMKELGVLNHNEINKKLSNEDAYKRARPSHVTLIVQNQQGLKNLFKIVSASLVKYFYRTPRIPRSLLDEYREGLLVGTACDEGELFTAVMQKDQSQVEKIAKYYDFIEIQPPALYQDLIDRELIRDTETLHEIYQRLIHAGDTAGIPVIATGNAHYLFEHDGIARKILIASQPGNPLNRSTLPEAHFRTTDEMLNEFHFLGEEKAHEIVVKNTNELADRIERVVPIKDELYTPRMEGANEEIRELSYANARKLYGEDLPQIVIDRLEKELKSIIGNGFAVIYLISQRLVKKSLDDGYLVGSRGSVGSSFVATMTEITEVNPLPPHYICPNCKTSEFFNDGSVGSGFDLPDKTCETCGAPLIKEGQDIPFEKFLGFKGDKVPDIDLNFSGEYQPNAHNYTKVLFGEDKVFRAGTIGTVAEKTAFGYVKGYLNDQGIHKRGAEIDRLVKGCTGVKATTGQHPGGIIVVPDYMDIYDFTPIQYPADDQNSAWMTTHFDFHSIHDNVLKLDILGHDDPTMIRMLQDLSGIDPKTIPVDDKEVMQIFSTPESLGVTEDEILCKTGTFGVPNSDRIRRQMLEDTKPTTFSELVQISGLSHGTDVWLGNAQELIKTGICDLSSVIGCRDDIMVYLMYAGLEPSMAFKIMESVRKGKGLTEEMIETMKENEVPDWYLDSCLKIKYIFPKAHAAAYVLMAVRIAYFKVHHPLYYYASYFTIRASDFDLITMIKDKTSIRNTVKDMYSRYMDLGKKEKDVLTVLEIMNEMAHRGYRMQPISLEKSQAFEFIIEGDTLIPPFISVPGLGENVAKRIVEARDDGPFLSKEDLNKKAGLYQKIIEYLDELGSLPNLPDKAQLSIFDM

Where “and” joins values, the source holds several entries; their conditions need not be identical. Identical values can stand only once.

Sequence of Escherichia coli DNA polymerase III core (Escherichia coli) (P10443 whole entry, chain 1 of 3): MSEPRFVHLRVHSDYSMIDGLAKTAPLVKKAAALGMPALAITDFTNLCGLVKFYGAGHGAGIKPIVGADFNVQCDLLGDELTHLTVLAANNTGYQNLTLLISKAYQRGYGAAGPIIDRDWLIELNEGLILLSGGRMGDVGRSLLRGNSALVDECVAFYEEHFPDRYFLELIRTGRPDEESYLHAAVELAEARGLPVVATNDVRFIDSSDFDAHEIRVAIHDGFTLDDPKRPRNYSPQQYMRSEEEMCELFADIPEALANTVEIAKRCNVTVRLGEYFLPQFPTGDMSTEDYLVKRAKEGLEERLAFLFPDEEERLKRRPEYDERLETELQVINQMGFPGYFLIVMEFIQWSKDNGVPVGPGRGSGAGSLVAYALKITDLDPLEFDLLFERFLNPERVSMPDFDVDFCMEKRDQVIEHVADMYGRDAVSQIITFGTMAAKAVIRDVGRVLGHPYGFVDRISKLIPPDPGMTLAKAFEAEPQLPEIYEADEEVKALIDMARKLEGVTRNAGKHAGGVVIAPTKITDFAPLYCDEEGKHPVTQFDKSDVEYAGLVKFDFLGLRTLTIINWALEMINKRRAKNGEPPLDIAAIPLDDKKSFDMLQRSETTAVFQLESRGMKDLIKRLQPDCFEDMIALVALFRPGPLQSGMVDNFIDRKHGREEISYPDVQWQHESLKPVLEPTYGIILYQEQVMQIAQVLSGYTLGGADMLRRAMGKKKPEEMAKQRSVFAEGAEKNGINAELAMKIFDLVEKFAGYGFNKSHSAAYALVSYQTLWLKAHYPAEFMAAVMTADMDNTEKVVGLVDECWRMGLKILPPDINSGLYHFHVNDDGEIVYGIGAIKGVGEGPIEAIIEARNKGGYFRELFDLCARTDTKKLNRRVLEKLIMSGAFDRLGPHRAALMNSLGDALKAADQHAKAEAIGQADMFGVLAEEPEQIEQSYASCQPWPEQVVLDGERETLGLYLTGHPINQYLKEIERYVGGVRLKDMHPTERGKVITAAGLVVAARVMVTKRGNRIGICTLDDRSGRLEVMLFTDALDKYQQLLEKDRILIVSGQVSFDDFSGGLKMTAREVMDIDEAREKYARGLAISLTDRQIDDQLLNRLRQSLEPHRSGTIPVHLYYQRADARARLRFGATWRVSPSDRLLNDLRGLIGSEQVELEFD
Sequence of Escherichia coli DNA polymerase III core (Escherichia coli) (P03007 whole entry, chain 2 of 3, further chain): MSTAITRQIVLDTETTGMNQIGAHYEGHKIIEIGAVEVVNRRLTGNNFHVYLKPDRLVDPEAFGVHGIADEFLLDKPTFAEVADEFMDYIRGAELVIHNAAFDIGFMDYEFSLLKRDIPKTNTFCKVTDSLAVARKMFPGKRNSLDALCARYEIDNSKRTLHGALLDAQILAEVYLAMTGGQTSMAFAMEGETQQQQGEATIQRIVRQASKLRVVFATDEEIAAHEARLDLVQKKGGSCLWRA
Sequence of Escherichia coli DNA polymerase III core (Escherichia coli) (P0ABS8 whole entry, chain 3 of 3, further chain): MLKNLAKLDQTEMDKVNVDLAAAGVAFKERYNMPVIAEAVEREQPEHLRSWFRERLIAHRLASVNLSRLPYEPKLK
Sequence of Pol I (O34996 whole entry): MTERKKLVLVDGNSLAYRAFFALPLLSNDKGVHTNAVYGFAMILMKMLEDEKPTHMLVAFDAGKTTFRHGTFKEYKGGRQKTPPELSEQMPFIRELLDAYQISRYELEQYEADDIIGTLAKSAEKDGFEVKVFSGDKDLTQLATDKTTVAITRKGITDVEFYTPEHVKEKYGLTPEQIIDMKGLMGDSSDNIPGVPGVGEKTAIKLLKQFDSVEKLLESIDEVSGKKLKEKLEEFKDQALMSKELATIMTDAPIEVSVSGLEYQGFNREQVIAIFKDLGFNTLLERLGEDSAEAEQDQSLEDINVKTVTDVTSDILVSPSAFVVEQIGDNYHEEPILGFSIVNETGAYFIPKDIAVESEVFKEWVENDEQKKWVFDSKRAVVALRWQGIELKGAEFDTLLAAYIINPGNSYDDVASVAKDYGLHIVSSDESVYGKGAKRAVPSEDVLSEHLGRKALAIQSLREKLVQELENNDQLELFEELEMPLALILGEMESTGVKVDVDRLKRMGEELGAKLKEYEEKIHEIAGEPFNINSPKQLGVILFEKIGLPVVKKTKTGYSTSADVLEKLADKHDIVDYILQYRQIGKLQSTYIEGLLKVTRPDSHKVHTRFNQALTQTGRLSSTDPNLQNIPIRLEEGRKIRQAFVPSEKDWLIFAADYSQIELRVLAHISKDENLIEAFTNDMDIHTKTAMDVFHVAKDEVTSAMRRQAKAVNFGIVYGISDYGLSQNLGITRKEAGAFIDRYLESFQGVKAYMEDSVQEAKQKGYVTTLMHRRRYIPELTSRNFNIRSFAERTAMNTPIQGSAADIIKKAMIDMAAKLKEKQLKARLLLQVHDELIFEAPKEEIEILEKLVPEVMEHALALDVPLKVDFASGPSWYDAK

Take `[Cl-].[K+]` [KCl]: the “Expected characteristics: inhibition by 0.15 M KCl” value at Pol I, in the experiment on Pol II and on Pol III-L was “not inhibited (Not inhibited is defined as greater than 75% remaining activity)” in each case.

Regarding “Escherichia coli beta subunit of DNA polymerase III holoenzyme (from UniProt P0A988 1-366)”, in experiment [1], the Total DNA synthesis on polydA-oligodT, lane 6 (E. coli Pol III core with E. coli beta; lane 5 without beta 0.97 pmol) was 28.1 pmol and the stimulation of DNA synthesis by E. coli core on linear polydA-oligodT was > 10 fold.

B1: DnaE polymerase: S. pyogenes DnaE (α-small) polymerase encoded by dnaE, SEQ. ID. No. 20 (protein)
chain: MFAQLDTKTVYSFMDSLIDLNHYFERAKQFGYHTIGIMDKDNLYGAYHFIKGCQKNGLQPVLGLEIEILYQERQVLLNLIAQNTQGYHQLLKISTAKMSGKLHMDYFCQHLEGIAVIIPSKGWSDTLVVPFDYYMGVDQYTDLSHMDSKRQLIPLRTVRYFAQDDMETLHMLHAIRDNLSLAETPVVESDQELADCQQLTAFYQTHCPQALQNLEDLVSGIYYDFDTNLKLPHFNRDKSAKQELQDLTEAGLKEKGLWKEPYQSRLLHELVIISDMGFDDYFLIVWDLLRFGRSKGYYMGMGRGSAAGSLVAYALNITGIDPVQHDLLFERFLNKERYSMPDIDIDLPDIYRSEFLRYVRNRYGSDHSAQIVTFSTFGPKQAIRDVFKRFGVPEYELTNLTKKIGFKDSLATVYEKSISFRQVINSRTEFQKAFAIAKRIEGNPRQTSIHAAGIVMSDDALTNHIPLKSGDDMMITQYDAHAVEANGLLKMDFLGLRNLTFVQKMQEKVAKDYGCQIDITAIDLEDPQTLALFAKGDTKGIFQFEQNGAINLLKRIKPQRFEEIVATTSLNRPGASDYTTNFIKRREGQEKIDLIDPVIAPILEPTYGIMLYQEQVMQIAQVYAGFTLGKADLLRRAMSKKNLQEMQKMEEDFIASAKHLGRAEETARGLFKRMEKFAGYGFNRSHAFAYSALAFQLAYFKAHYPAVFYDIMMNYSSSDYITDALESDFQVAQVTINSIPYTDKIEASKIYMGLKNIKGLPRDFAYWIIEQRPFNSVEDFLTRTPEKYQKKVFLEPLIKIGLFDCFEPNRKKILDNLDGLLVFVNELGSLFSDSSFSWVDTKDYSVTEKYSLEQEIVGVGMSKHPLIDIAEKSTQTFTPISQLVKESEAVVLIQIDSIRIIRTKTSGQQMAFLSVNDTKKKLDVTLFPQEYAIYKDQLKEGEFYYLKGRIKERDHRLQMVCQQVQMAISQKYWLLVENHQFDSQISEILGAFPGTTPVVIHYQKNKETIALTKIQVTENLKEKLRPFVLKTVFR
As for B1, the “Speed of primer extension” value in experiment [2] is recorded as “at least 60 nucleotides/s”. In addition, the “Time to complete M13mp18 primed ssDNA template” value in experiment [2] (absence of β, presence of τδδ′) was ≤ 2 min.

B2: Staphylococcus aureus beta subunit (dnaN gene product) (protein)
chain: MMEFTIKRDYFITQLNDTLKAISPRTTLPILTGIKIDAKEHEVILTGSDSEISIEITIPKTVDGEDIVNISETGSVVLPGRFFVDIIKKLPGKDVKLSTNEQFQTLITSGHSEFNLSGLDPDQYPLLPQVSRDDAIQLSVKVLKNVIAQTNFAVSTSETRPVLTGVNWLIQENELICTATDSHRLAVRKLQLEDVSENKNVIIPGKALAELNKIMSDNEEDIDIFFASNQVLFKVGNVNFISRLLEGHYPDTTRLFPENYEIKLSIDNGEFYHAIDRASLLAREGGNNVIKLSTGDDVVELSSTSPEIGTVKEEVDANDVEGGSLKISFNSKYMMDALKAIDNDEVEVEFFGTMKPFILKPKGDDSVTQLILPIRTY
In experiment [1], B2 showed a Total DNA synthesis on polydA-oligodT, lane 4 (E. coli Pol III core with S. aureus beta; lane 3 without beta 5.1 pmol) of 35.5 pmol and a stimulation of DNA synthesis by E. coli core on linear polydA-oligodT of 5 fold. Besides, in experiment [3], the Total DNA synthesis on polydA-oligodT, lane 2 (Pol III-L with S. aureus beta; lane 1 without beta 4.4 pmol) was 30.3 pmol; the stimulation of DNA synthesis by Pol III-L on linear polydA-oligodT was 5 fold and 6 fold.
